Results reported in IntAct's records for PubMed 35512704.

B1: Mothers against decapentaplegic homolog 4 (Homo sapiens), Q13485 (parent)
chain: MDNMSITNTPTSNDACLSIVHSLMCHRQGGESETFAKRAIESLVKKLKEKKDELDSLITAITTNGAHPSKCVTIQRTLDGRLQVAGRKGFPHVIYARLWRWPDLHKNELKHVKYCQYAFDLKCDSVCVNPYHYERVVSPGIDLSGLTLQSNAPSSMMVKDEYVHDFEGQPSLSTEGHSIQTIQHPPSNRASTETYSTPALLAPSESNATSTANFPNIPVASTSQPASILGGSHSEGLLQIASGPQPGQQQNGFTGQPATYHHNSTTTWTGSRTAPYTPNLPHHQNGHLQHHPPMPPHPGHYWPVHNELAFQPPISNHPAPEYWCSIAYFEMDVQVGETFKVPSSCPIVTVDGYVDPSGGDRFCLGQLSNVHRTEAIERARLHIGKGVQLECKGEGDVWVRCLSDHAVFVQSYYLDREAGRAPGDAVHKIYPSAYIKVFDLRQCHRQMQQQAATAQAAAAAQAAAVAGNIPGPGSVGGIAPAISLSAAAGIGVDDLRRLCILRMSFVKGWGPDYPRQSIKETPCWIEIHLHRALQLLDEVLHTMPIADPQPLD
partner: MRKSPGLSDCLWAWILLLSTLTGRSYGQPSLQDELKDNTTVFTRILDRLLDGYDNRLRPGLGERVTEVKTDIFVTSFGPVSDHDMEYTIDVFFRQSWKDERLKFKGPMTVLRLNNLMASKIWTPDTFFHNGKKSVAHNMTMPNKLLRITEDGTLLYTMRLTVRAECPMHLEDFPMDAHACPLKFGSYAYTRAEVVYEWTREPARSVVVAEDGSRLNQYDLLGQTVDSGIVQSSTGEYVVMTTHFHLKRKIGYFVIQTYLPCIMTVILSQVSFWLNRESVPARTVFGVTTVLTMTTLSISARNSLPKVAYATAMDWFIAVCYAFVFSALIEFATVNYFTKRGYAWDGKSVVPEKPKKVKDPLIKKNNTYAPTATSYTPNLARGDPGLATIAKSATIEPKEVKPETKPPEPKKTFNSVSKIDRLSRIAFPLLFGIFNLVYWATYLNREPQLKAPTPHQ
B2: Mothers against decapentaplegic homolog 4 (Homo sapiens), Q13485 (parent)
chain: B1 chain
partner: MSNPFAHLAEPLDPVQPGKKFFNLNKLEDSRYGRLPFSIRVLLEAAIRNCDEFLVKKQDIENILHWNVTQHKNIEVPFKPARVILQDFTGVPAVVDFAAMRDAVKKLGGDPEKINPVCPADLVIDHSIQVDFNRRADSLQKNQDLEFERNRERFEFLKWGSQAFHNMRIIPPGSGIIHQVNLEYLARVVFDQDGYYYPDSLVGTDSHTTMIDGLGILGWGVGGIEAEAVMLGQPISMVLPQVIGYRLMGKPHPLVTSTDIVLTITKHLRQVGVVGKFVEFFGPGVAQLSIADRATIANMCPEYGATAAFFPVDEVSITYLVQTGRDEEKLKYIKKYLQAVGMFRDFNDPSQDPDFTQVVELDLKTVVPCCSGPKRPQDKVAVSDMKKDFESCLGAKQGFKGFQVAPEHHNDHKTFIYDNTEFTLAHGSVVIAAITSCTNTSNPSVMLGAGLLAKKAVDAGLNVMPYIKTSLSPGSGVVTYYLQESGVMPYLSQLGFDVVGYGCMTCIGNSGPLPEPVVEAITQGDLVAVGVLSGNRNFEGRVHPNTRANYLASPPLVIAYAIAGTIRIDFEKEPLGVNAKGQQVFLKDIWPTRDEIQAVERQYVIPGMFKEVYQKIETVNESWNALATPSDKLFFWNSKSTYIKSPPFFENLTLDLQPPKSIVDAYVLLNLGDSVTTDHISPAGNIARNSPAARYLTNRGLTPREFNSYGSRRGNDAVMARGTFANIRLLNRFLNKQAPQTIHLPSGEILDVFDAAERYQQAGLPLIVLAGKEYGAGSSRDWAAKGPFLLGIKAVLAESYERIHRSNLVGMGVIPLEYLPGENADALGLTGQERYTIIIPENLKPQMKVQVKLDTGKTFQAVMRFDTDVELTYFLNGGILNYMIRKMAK
B3: Mothers against decapentaplegic homolog 4 (Homo sapiens), Q13485 (parent)
chain: B1 chain
partner: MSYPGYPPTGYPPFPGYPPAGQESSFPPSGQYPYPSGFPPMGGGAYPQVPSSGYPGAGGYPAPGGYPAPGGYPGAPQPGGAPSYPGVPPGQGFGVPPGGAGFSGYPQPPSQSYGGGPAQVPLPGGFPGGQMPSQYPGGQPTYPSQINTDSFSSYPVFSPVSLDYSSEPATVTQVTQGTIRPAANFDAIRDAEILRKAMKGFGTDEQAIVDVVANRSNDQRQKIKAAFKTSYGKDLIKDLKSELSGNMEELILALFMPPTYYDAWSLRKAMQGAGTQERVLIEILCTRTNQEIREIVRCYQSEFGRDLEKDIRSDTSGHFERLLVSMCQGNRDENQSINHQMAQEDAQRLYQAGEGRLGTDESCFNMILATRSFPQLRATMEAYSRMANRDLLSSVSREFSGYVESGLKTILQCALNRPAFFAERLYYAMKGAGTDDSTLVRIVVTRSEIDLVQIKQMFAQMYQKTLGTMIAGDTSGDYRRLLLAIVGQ
B4: Mothers against decapentaplegic homolog 4 (Homo sapiens), Q13485 (parent)
chain: B1 chain
partner: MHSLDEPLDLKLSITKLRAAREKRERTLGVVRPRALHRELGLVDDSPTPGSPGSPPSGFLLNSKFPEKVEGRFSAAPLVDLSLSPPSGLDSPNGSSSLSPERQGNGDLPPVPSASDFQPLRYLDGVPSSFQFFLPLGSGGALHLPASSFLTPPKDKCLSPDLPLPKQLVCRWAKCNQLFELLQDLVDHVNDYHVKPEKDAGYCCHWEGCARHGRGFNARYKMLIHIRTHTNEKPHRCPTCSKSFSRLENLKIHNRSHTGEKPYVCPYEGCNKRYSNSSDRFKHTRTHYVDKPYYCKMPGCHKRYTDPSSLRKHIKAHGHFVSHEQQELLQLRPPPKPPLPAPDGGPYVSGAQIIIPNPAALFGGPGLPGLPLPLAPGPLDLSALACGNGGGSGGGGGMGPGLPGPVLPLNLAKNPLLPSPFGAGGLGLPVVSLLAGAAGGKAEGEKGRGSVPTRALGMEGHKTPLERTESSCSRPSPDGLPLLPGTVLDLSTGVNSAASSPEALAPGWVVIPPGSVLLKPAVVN

Variants of: B1
Details: with gbra1_human GABRA1, P14867

effect of a mutation on the interaction | Variant
with no effect | R361H

Variants of: B2
Details: with acohc_human ACO1, P21399

effect of a mutation on the interaction | Variant
with no effect | D351H

Variants of: B2
Details: with acohc_human ACO1, P21399
Remark: another data set of the same source

effect of a mutation on the interaction | Variant
with no effect | R361C

Variants of: B2
Details: with acohc_human ACO1, P21399
Remark: another data set of the same source

effect of a mutation on the interaction | Variant
with no effect | R361H

Variants of: B2
Details: with acohc_human ACO1, P21399
Remark: another data set of the same source

effect of a mutation on the interaction | Variant
with no effect | G386D

Variants of: B3
Details: with anxa7_human ANXA7, P20073

effect of a mutation on the interaction | Variant
with no effect | R361H

Variants of: B3
Details: with anxa7_human ANXA7, P20073
Remark: another data set of the same source

effect of a mutation on the interaction | Variant
with no effect | R361C

Variants of: B3
Details: with anxa7_human ANXA7, P20073
Remark: another data set of the same source

effect of a mutation on the interaction | Variant
with no effect | G386D

Variants of: B3
Details: with anxa7_human ANXA7, P20073
Remark: another data set of the same source

effect of a mutation on the interaction | Variant
with no effect | D351H

Variants of: B4
Details: with glis2_human GLIS2, Q9BZE0

effect of a mutation on the interaction | Variant
with no effect | R361H

Variants of: B4
Details: with glis2_human GLIS2, Q9BZE0
Remark: another data set of the same source

effect of a mutation on the interaction | Variant
with no effect | R361C

Variants of: B4
Details: with glis2_human GLIS2, Q9BZE0
Remark: another data set of the same source

effect of a mutation on the interaction | Variant
with no effect | G386D

Variants of: B4
Details: with glis2_human GLIS2, Q9BZE0
Remark: another data set of the same source

effect of a mutation on the interaction | Variant
with no effect | D351H
